Among the data in PMC4918310 are TWEAK (200 ng ml^-1)-induced canonical and non-canonical NF-kB signalling in mouse endothelial cells (MDEC), immunoblotting, with increasing doses of recombinant mouse sCD163 values, retold here.

In the assay the target is untagged recombinant mouse TWEAK (mouse) (UniProt O54907).
Sequence of UniProt O54907 (O54907 94-249): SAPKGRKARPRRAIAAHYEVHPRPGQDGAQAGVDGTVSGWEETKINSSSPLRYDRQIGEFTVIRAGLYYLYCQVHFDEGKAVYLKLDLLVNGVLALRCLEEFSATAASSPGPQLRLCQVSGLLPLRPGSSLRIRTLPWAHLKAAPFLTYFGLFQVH

On to recombinant mouse sCD163 (receptor), for which the TWEAK (200 ng ml^-1)-induced canonical and non-canonical NF-kB signalling in mouse endothelial cells (MDEC), immunoblotting, with increasing doses of recombinant mouse sCD163 amounted to 50.
